Experimental data from ChEMBL document CHEMBL1139472, “Synthesis of N-{4-[(2,4-diamino-5-methyl-4,7-dihydro-3H-pyrrolo[2,3-d]pyrimidin-6-yl)thio]benzoyl}-L-glutamic acid and N-{4-[(2-amino-4-oxo-5-methyl-4,7-dihydro-3H-pyrrolo[2,3-d]pyrimidin-6-yl)thio]benzoyl}-L-glutamic acid as dual inhibitors of dihydrofolate reductase and thymidylate synthase and …” (J Med Chem, 2005).

How the values were obtained:
[1] = substrate: Cc1c(Sc2ccc(C(=O)N[C@@H](CCC(=O)O)C(=O)O)cc2)[nH]c2nc(N)[nH]c(=O)c12; test: (§1) Activity of human recombinant cytosolic FPGS relative to aminopterin
[2] = substrate: Nc1nc(N)c2nc(CNc3ccc(C(=O)N[C@@H](CCC(=O)O)C(=O)O)cc3)cnc2n1; test: as §1
[3] = substrate: Cc1c(Sc2ccc(C(=O)N[C@@H](CCC(=O)O)C(=O)O)cc2)[nH]c2nc(N)[nH]c(=O)c12; test: Activity of human recombinant cytosolic FPGS

B1: Folylpolyglutamate synthase, mitochondrial (Homo sapiens), Q05932 (protein)
chain: MSRARSHLRAALFLAAASARGITTQVAARRGLSAWPVPQEPSMEYQDAVRMLNTLQTNAGYLEQVKRQRGDPQTQLEAMELYLARSGLQVEDLDRLNIIHVTGTKGKGSTCAFTECILRSYGLKTGFFSSPHLVQVRERIRINGQPISPELFTKYFWRLYHRLEETKDGSCVSMPPYFRFLTLMAFHVFLQEKVDLAVVEVGIGGAYDCTNIIRKPVVCGVSSLGIDHTSLLGDTVEKIAWQKGGIFKQGVPAFTVLQPEGPLAVLRDRAQQISCPLYLCPMLEALEEGGPPLTLGLEGEHQRSNAALALQLAHCWLQRQDRHGAGEPKASRPGLLWQLPLAPVFQPTSHMRLGLRNTEWPGRTQVLRRGPLTWYLDGAHTASSAQACVRWFRQALQGRERPSGGPEVRVLLFNATGDRDPAALLKLLQPCQFDYAVFCPNLTEVSSTGNADQQNFTVTLDQVLLRCLEHQQHWNHLDEEQASPDLWSAPSPEPGGSASLLLAPHPPHTCSASSLVFSCISHALQWISQGRDPIFQPPSPPKGLLTHPVAHSGASILREAAAIHVLVTGSLHLVGGVLKLLEPALSQ
Work on B1 yielded a Vmax [1] of 0.29, a Vmax [2] of 1 and a Km [3] of 5.1 µM.
